The record followed here is patent CN112592405A (BIOSION BIO TECH NANJING CO LTD, dated 2021).

The assay concerns the target T1, 人BCMA-His抗原 (ACRO, Cat#BCA-H522y) (human, UniProt Q02223 1-54).
T1 construct: Bought recombinant protein; also called human BCMA-His; 人BCMA蛋白; not shown: His tag
T1 sequence (looked up): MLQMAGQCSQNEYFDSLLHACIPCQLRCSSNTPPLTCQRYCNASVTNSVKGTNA
As to the kind of experiment: indirect ELISA, plate coated with human BCMA-His at 2 μg/ml, detection with HRP goat anti-human Fcγ. A general note: ELISA stands for enzyme-linked immunosorbent assay.

B1: BCMA Benchmark1 (antibody sequence of GSK2857916) (antibody, human IgG1, kappa, V domains shown)
VH: QVQLVQSGAEVKKPGSSVKVSCKASGGTFSNYWMHWVRQAPGQGLEWMGATYRGHSDTYYNQKFKGRVTITADKSTSTAYMELSSLRSEDTAVYYCARGAIYDGYDVLDNWGQGTLVTVSS
VL: DIQMTQSPSSLSASVGDRVTITCSASQDISNYLNWYQQKPGKAPKLLIYYTSNLHSGVPSRFSGSGSGTDFTLTISSLQPEDFATYYCQQYRKLPWTFGQGTKLEIKR
notes: also called BCMA-BM1
Consider B1, for which the binding result was “binds”.

B2: BCMA-VHH-2B11纳米抗体 (抗人BCMA纳米抗体, 含有Fc tag) (Fc fusion)
chain: QVQLVESGGGLVQAGGSLRLSCAASGGTFNNDNVGWFRQAPGKEREFVAVISWRGDGTDYADSVKGRFTISRDYAKKMVYLQMNSLQPKDTAVYYCAVGDGSRWRGAYAYWGQGTRVTVSS
notes: Expressed in Expi293F cells and purified on Protein A/G. It was tested as VHH with an Fc tag, about 35 kDa on SDS-PAGE; also called anti-human BCMA nanobody; not shown: Fc tag
Regarding B2, the binding result is recorded as “binds”.
